Measured values published in CN115057938A (dated 2022).

B1: R1463 (VHH)
VHH: QVQLVESGGGVVQPGGSLRLSCTCSRCTFNWDGMGWFRQAPGKGLEFVATISWSGQEPAYADSVKGRFTISRDNSKNTLYLQMTSLRAEDTAVYYCAAAQYTGASYSILRDQVGYDYWGQGTLVTVSS
notes: also called RX017 VHH-His标签; 对照
B2: R1464 (VHH, not shown: small tags and cut ends)
chain (part 1 of 3): HHHHHHQVQLVESGGGVVQPGGSLRLSCTCSRCTFNWDGMGWFRQAPGKGLEFVATISWSGQEPAYADSVKGRFTISRDNSKNTLYLQMTSLRAEDTAVYYCAAAQYTGASYSILRDQVGYDYWGQGTLVTVSS
chain (part 2 of 3): QVQLVESGGGVVQPGGSLRLSCTCSRCTFNWDGMGWFRQAPGKGLEFVATISWSGQEPAYADSVKGRFTISRDNSKNTLYLQMTSLRAEDTAVYYCAAAQYTGASYSILRDQVGYDYWGQGTLVTVSS
chain (part 3 of 3): QVQLVESGGGVVQPGGSLRLSCTCSRCTFNWDGMGWFRQAPGKGLEFVATISWSGQEPAYADSVKGRFTISRDNSKNTLYLQMTSLRAEDTAVYYCAAAQYTGASYSILRDQVGYDYWGQGTLVTVSS
notes: also called 人源化多价结合蛋白 R1464; His标签-VHH-Linker-VHH-Linker-VHH
B3: R1475 (VHH, not shown: small tags and cut ends)
VHH 1: QVQLVESGGGVVQPGGSLRLSCTCSRCTFNWDGMGWFRQAPGKGLEFVATISWSGQEPAYADSVKGRFTISRDNSKNTLYLQMTSLRAEDTAVYYCAAAQYTGASYSILRDQVGYDYWGQGTLVTVSS
VHH 2: QVQLVESGGGVVQPGGSLRLSCTCSRCTFNWDGMGWFRQAPGKGLEFVATISWSGQEPAYADSVKGRFTISRDNSKNTLYLQMTSLRAEDTAVYYCAAAQYTGASYSILRDQVGYDYWGQGTLVTVSS
notes: also called 人源化多价结合蛋白 R1475; VHH-Linker-VHH-His标签

Target: 野生株SARS-COV-2 RBD蛋白(Ag27) (SARS-COV-2 野生株, UniProt P0DTC2 319-541)

Binder	IC50 [nM]
B1	0.0359
B2	0.0272
B3	0.0206
